B1: Pistol ribozyme (parent)
chain: GGGUCGUUGUUCCAUAAUCGCGUGGAUAUGGCACGCAAGUUUCUACCGGGCACCGUAAAUGUCCGACUGGAGCCGUUCGGGCGGCUAUAAACAGACCUCAGGCCCGAAGCGUGGCGGCACCUGCCGCCGGUGGUAAAAAAGAUCGGAAGAGCACACGUCU

This note sets out measurements from the RNAGym collection of RNA variant scans (doi:10.1021/acssynbio.7b00057).

Variants of B1 are the subject of the series. Put plainly: aptazyme ON/OFF ratio, guanine; higher = stronger switching; co-transcriptional cleavage with and without guanine.
With G9A U10A C12A C13G, the “aptazyme ON/OFF ratio” value was determined as 1.06.

For U7C G9U U10G U11C C13G, the “aptazyme ON/OFF ratio” value is 1.06.

Regarding U7A U10G U11A C13U, the “aptazyme ON/OFF ratio” value turned out to be 1.06.

In the case of U7C G9C U11G C12A C13A, the “aptazyme ON/OFF ratio” value was 1.05.

In the case of U8G U10C U11A C12G C13G, the “aptazyme ON/OFF ratio” value was 1.09.

Turning to U7A G9C U10G U11A C13U, the “aptazyme ON/OFF ratio” value was determined as 1.05.

With U7G U8G G9C U10A U11G C12U C13G, the “aptazyme ON/OFF ratio” value is 1.04.

As to U7C U8G G9U U10A U11G C12A C13A, the “aptazyme ON/OFF ratio” value was 1.11.

For the variant U7A U8C G9U U10A U11G C12G C13U, the “aptazyme ON/OFF ratio” value was found to be 1.18.

Consider U7A U8G U10C U11A C12U, for which the “aptazyme ON/OFF ratio” value amounted to 1.27.

Take U7C U8C U10G U11A C12G: the “aptazyme ON/OFF ratio” value was 1.14.

With U7C U8G G9A U11C C12A C13A, the “aptazyme ON/OFF ratio” value worked out at 1.1.

Consider U7G U8C G9A U11C C12U C13U, for which the “aptazyme ON/OFF ratio” value was 1.08.

In the case of U7C G9U U10C U11C C12A, the “aptazyme ON/OFF ratio” value stood at 1.06.

For U7G G9C U10G U11G C12G C13U, the “aptazyme ON/OFF ratio” value was found to be 1.12.

As to U7A G9A U10G C12A, the “aptazyme ON/OFF ratio” value was 1.13.

On to U7C U8G G9U C12U, for which the “aptazyme ON/OFF ratio” value came to 1.97.

U8C U10G C12G C13A: the “aptazyme ON/OFF ratio” value turned out to be 1.09.

For U7A G9U U10G U11A C12U, the “aptazyme ON/OFF ratio” value is 1.06.

U7G U8G G9U U10C U11C C12U: the “aptazyme ON/OFF ratio” value was determined as 1.53.

Take U7G U8G G9U U10C U11C C12G: the “aptazyme ON/OFF ratio” value was 1.46.

U7A G9C U10C U11A C13G: the “aptazyme ON/OFF ratio” value was found to be 1.12.

Regarding U7A U10C U11G C12U C13U, the “aptazyme ON/OFF ratio” value turned out to be 1.2.

Consider U7C U8G G9A U11C C12U C13G, for which the “aptazyme ON/OFF ratio” value was determined as 1.15.

In the case of U7C U8G G9C U11A C12G C13A, the “aptazyme ON/OFF ratio” value amounted to 1.1.

With U7C U8C G9A U10C U11G C12U C13A, the “aptazyme ON/OFF ratio” value was determined as 1.45.

With U8C G9C U11G C12U, the “aptazyme ON/OFF ratio” value amounted to 1.12.

Turning to U7A U8A G9A C12U C13A, the “aptazyme ON/OFF ratio” value came to 1.11.

Consider U7A U8C G9C U10A U11G C13G, for which the “aptazyme ON/OFF ratio” value was 1.12.

For U7A U10A U11G C12U C13U, the “aptazyme ON/OFF ratio” value is 1.35.

As to U7A G9C U10A U11G C12G C13A, the “aptazyme ON/OFF ratio” value amounted to 1.06.

For U7A G9C U11A C12U C13A, the “aptazyme ON/OFF ratio” value came to 1.1.

Take U8A G9U U10C U11G C12U C13A: the “aptazyme ON/OFF ratio” value is 1.11.

For U8C G9U U11G C13A, the “aptazyme ON/OFF ratio” value stood at 1.24.

As for U7C U8A G9A U10G U11C C12G C13U, the “aptazyme ON/OFF ratio” value was 1.25.

Regarding U7C U8C G9C U11A C12G, the “aptazyme ON/OFF ratio” value is 1.14.

Consider U7A U8G U10G U11G C13U, for which the “aptazyme ON/OFF ratio” value came out at 1.32.

In the case of U8C G9A U10C C12G C13G, the “aptazyme ON/OFF ratio” value was found to be 1.4.

For the variant U7G G9C U11C C12A C13G, the “aptazyme ON/OFF ratio” value was determined as 1.28.

As to U8A G9U U10A C12G, the “aptazyme ON/OFF ratio” value is 1.31.

For U7G U8A G9A U10C U11G C12G, the “aptazyme ON/OFF ratio” value was determined as 1.32.

As for U7G U8C G9C U11A C12A C13A, the “aptazyme ON/OFF ratio” value came to 1.11.

For the variant G9U U10G C13A, the “aptazyme ON/OFF ratio” value was 1.52.

Consider G9U U10A U11A C12G C13G, for which the “aptazyme ON/OFF ratio” value was determined as 1.51.

Turning to G9U U11C C13G, the “aptazyme ON/OFF ratio” value was found to be 1.06.

For G9C U10A U11G C12A C13A, the “aptazyme ON/OFF ratio” value stood at 1.06.

Take U7C U8C G9C U11C C12G C13U: the “aptazyme ON/OFF ratio” value amounted to 1.01.

Regarding U7A U8A U10C U11G C12G C13G, the “aptazyme ON/OFF ratio” value is 1.18.

Take U7G U8C: the “aptazyme ON/OFF ratio” value is 1.32.

On to U8A G9U U11C C13U, for which the “aptazyme ON/OFF ratio” value turned out to be 1.03.

For the variant U7C U8A U10G C12U C13U, the “aptazyme ON/OFF ratio” value came to 1.24.

For U7C U8A U11C C12G, the “aptazyme ON/OFF ratio” value was found to be 1.36.

For U7A U8G G9C U11C C12G C13G, the “aptazyme ON/OFF ratio” value came to 1.11.

On to U7G U8C G9A U10A U11G C12U C13G, for which the “aptazyme ON/OFF ratio” value amounted to 1.2.

Turning to U7C U8G G9U U10C U11C C12G C13U, the “aptazyme ON/OFF ratio” value came to 1.04.

For U8G G9A U10G C12U, the “aptazyme ON/OFF ratio” value was determined as 1.39.

Turning to U8C G9U U10G U11G C12U, the “aptazyme ON/OFF ratio” value was 1.12.

As for U7A U8C U10A C13A, the “aptazyme ON/OFF ratio” value was 1.06.

Turning to U7C U8C G9U U11C C12G, the “aptazyme ON/OFF ratio” value worked out at 1.22.

Turning to U8G G9A U10G U11G C13A, the “aptazyme ON/OFF ratio” value stood at 1.56.

Consider U7A U8A G9U U10C U11C C12A C13G, for which the “aptazyme ON/OFF ratio” value stood at 1.12.

For U7A U8G U10A U11C C13G, the “aptazyme ON/OFF ratio” value amounted to 1.25.

On to U7C U8C G9A U10G U11C C12G, for which the “aptazyme ON/OFF ratio” value amounted to 1.12.

With U7G U8G G9A U11C C12U C13G, the “aptazyme ON/OFF ratio” value was 1.44.

Take U7G U8C U10C C12G C13A: the “aptazyme ON/OFF ratio” value was 1.2.

Regarding G9A U10C U11C C12G, the “aptazyme ON/OFF ratio” value was determined as 1.18.

As to U7C G9A U10A C13A, the “aptazyme ON/OFF ratio” value is 1.23.

Take U8A G9A U10G U11G C13A: the “aptazyme ON/OFF ratio” value was 1.17.

As for U7G U10C U11C C12G C13A, the “aptazyme ON/OFF ratio” value is 1.1.

U7C U8C U10G U11G C13G: the “aptazyme ON/OFF ratio” value was 1.11.

Take U7A U8G G9U U10A C12G C13A: the “aptazyme ON/OFF ratio” value was 1.09.

For the variant U7C U8C G9C U10G C12A, the “aptazyme ON/OFF ratio” value worked out at 1.1.

In the case of U7G U8A G9C U10C U11C C13A, the “aptazyme ON/OFF ratio” value was 1.03.

U7C U8G G9U U10C U11A C12U C13A: the “aptazyme ON/OFF ratio” value was 1.24.

Turning to U7C G9A U10C U11C C12A C13A, the “aptazyme ON/OFF ratio” value amounted to 1.07.

With U7C G9A U11A C12A C13A, the “aptazyme ON/OFF ratio” value is 1.24.

On to U7A U8C G9C C12U C13U, for which the “aptazyme ON/OFF ratio” value was found to be 1.14.

As to U7C U10A U11G C12U C13A, the “aptazyme ON/OFF ratio” value stood at 1.35.

On to U7C G9C U11A, for which the “aptazyme ON/OFF ratio” value was determined as 1.03.

With U7C U8C G9U U10C C12A C13U, the “aptazyme ON/OFF ratio” value was 1.07.

On to U7C U8G G9U U10G U11G C12U, for which the “aptazyme ON/OFF ratio” value is 1.28.

On to U7C U8C G9C U10G U11G C12G C13U, for which the “aptazyme ON/OFF ratio” value is 1.05.

Turning to U7C U8A G9A U11C C12G C13U, the “aptazyme ON/OFF ratio” value was found to be 1.18.

Take U7G U8G G9C U10C C12A C13G: the “aptazyme ON/OFF ratio” value was 1.27.
